Experimental data as given in doi:10.1101/327320.

Key:
Assay in all cases: EMSA
Hrq1 = target: T1, Hrq1 (Saccharomyces cerevisiae, UniProt Q05549 1-1077)
T1 sequence: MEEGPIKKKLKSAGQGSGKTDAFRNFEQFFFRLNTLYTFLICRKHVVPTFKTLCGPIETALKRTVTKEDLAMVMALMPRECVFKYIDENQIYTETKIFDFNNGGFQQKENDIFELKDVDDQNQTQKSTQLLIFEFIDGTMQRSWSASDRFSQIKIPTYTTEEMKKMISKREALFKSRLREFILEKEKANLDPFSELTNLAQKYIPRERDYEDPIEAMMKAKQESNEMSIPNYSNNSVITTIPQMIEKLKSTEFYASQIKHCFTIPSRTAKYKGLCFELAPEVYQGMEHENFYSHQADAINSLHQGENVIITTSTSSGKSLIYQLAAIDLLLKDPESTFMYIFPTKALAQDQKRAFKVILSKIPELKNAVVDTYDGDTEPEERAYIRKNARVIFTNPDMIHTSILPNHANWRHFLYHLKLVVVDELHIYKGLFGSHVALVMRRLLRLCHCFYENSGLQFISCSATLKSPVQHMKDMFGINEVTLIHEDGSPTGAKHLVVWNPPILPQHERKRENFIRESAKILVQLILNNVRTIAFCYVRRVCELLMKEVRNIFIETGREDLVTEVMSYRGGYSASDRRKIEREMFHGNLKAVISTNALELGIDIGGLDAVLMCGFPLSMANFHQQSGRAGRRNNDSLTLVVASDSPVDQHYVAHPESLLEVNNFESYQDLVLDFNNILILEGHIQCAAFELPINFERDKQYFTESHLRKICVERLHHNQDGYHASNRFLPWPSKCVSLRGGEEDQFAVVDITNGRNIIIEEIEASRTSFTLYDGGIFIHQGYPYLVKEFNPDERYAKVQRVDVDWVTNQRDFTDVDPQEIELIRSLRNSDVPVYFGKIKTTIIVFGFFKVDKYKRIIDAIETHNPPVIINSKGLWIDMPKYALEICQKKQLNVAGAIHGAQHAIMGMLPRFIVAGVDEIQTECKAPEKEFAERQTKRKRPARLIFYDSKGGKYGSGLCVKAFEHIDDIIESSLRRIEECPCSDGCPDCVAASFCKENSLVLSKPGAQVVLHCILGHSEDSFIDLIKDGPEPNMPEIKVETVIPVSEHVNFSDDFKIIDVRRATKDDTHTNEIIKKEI

Pif1 = target: T2, Pif1 (Saccharomyces cerevisiae, UniProt P07271 1-859)
T2 sequence: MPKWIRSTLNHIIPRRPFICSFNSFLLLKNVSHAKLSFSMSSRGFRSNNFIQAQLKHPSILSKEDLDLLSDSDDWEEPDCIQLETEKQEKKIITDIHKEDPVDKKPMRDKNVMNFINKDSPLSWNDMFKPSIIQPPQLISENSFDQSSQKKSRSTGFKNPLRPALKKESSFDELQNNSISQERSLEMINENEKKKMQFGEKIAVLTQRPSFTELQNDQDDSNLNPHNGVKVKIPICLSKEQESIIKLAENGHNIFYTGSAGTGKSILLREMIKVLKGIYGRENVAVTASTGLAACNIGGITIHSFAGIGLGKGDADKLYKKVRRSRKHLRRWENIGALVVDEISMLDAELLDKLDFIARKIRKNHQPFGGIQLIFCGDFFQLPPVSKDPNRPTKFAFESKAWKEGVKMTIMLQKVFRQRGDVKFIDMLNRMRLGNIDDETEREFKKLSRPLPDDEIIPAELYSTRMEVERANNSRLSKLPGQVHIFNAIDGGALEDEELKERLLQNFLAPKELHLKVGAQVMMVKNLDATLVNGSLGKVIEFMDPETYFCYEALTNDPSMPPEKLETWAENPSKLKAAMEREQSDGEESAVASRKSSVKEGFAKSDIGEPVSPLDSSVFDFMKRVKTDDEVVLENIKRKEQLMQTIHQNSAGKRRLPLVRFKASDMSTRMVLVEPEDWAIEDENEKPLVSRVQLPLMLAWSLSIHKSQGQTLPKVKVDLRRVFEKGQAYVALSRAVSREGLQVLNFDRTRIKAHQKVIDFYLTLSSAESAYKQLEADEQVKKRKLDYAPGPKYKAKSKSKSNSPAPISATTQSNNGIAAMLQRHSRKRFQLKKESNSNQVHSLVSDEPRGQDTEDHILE

Pif1-K264A = target: T3, Pif1-K264A (Saccharomyces cerevisiae, UniProt P07271 1-859, K264A)
T3 sequence: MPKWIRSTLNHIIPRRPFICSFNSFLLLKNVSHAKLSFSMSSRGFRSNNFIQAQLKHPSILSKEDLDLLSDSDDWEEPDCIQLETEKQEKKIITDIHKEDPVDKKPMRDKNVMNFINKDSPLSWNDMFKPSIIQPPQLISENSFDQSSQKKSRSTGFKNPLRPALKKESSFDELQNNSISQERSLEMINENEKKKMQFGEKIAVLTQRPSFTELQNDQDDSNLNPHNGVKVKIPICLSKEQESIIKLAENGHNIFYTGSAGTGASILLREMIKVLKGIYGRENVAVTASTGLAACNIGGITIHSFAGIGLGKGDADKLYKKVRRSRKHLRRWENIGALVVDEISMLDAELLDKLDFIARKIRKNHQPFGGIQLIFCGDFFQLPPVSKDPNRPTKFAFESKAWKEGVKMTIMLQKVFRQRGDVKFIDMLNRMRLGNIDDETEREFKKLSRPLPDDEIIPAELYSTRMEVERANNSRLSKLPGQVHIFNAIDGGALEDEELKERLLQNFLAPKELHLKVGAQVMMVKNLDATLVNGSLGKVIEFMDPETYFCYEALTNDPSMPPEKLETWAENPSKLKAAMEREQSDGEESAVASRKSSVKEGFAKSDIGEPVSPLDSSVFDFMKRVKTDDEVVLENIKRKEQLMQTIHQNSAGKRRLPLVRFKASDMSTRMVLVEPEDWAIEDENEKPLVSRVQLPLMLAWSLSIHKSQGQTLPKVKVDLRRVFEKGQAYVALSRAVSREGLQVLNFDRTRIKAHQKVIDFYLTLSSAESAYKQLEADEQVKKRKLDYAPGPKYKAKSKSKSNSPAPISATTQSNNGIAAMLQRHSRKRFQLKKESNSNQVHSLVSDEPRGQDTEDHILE

Hrq1-K318A = target: T4, Hrq1-K318A (Saccharomyces cerevisiae, UniProt Q05549 1-1077, K318A)
T4 sequence: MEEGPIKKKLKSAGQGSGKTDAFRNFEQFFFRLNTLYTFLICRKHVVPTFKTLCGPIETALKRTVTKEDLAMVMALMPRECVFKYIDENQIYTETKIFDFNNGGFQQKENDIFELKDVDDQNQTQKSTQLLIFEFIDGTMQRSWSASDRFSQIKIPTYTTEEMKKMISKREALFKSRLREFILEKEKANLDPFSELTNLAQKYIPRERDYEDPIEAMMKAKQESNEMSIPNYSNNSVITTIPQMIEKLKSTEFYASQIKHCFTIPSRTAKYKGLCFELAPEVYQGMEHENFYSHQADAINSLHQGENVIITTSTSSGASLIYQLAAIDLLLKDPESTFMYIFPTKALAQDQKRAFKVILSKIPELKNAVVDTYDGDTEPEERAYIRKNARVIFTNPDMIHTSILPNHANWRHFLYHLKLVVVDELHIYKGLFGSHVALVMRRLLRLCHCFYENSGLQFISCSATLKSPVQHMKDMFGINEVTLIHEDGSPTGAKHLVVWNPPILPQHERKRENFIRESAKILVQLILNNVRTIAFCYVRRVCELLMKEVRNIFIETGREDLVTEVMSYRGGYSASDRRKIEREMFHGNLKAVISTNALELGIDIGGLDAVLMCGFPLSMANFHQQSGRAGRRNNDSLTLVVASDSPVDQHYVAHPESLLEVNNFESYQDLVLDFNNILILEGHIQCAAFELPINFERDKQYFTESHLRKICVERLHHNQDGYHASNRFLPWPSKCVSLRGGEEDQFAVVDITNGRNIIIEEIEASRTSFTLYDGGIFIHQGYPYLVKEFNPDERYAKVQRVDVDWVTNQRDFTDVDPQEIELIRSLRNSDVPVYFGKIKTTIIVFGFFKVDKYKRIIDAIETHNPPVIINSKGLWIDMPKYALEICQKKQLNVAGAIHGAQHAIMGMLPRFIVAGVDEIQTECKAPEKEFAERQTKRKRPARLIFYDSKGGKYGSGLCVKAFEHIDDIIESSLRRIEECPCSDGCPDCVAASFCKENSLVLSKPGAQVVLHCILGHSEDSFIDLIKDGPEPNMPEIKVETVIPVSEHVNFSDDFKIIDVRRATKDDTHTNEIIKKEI

Hrq1;Pif1 = Hrq1;Pif1 (Saccharomyces cerevisiae;Saccharomyces …, UniProt Q05549;P07271 1-1077;1-859, |)

Question: For TTTTTTTTTTTTTTTTTTTTTTTTT (ssDNA) [MB463 poly(dT) 25 nt], which Kd (Hrq1) is on record?
Answer: Its Kd is ~35 nM.

Question: For TTTTTTTTTTTTTTTTTTTTTTTTT (ssDNA, 3'-terminal T25 is inverted dT (3'-3' linkage, two 5' ends, no free 3' end)) [MB1429 poly(dT) 25 nt with 3' inverted dT], which Kd (Hrq1) is on record?
Answer: Its Kd is ~35 nM.

Question: Does TGTGGTGTGTGTGGG (ssDNA) [Tel15] bind (Pif1)?
Answer: Result: binds

Question: Does TGTGGTGTGTGTGGG (ssDNA) [Tel15] bind (Pif1-K264A)?
Answer: Result: binds

Question: For CGCCATGCTGATCCGTGTGGTGTGTGTGGG (ssDNA) [Tel30], which Kd (Pif1) is on record?
Answer: Its Kd is 33.5 nM.

Question: What about the Kd (Pif1-K264A) of the same binder?
Answer: Its Kd is 41.2 nM.

Question: What about the Kd (Hrq1-K318A) of the same binder?
Answer: The Kd was 105 nM.

Question: And the Kd (Hrq1)?
Answer: The Kd was 16.1 nM.

Question: Does GTGTGGGTGTGGTGTGGGTGTGGTGTGGGTGTGTGGTGTGGTGTGTGTGG (ssDNA) [Tel50] bind (Hrq1;Pif1)?
Answer: Result: binds
